# In the DeepSol protein solubility set:
# Test: soluble on expression in E. coli; label from the status in PepcDB or PDB records
row,Sequence,soluble on expression in E. coli
1,MSNKLETGIQYMQEGNWEEAAKNFTEAIEENPKDALGYINFANLLDVLGDSERAILFYKRALELDDKSAAAYYGLGNVYYGQEQFTEAKAVFEQAMQAGLQSADVTFMLGITHVQLGNDRLALPFLQRATELDENDVEAVFQCGLCFARLEHVQEAKPYFEKVLEMDEEHADAYYNLGVAYVFEENNEKALALFKKATEIQPDHFLAGNGVRLLEQEAE,not soluble
2,MSNSKDLMSEFEKLRQETSKIQYSLIQKLPSEPSSFVENQLLLETQTLCGQLLKNQEEQNILNEKLRNEQKIIKLKHNTEMKSMRDKLETLTTAQAAQKLDFERHFEMMRQSHSAKIVKMERDLRNMKYDLHSLRSDMDSRKNCENRAAPKPEFQIFVKVLGVSYAFKIHREDTVFDIKNDIEHRHDIPQHSYWLSFSGKRLEDHCSIGDYNIQKSSTITMYFRSG,not soluble
3,MSNSRSILSQPEWRIVDQSSLGPTFHALQSFAMDDTLCTSIGKGESAATMRSWVHHNTIVLGIQDSRLPHLEEGISFLKENNFNVIVRNSGGLAVVLDEGVLNVSLLFQETEKGIDIDLGYDTMWHLIQEMLKDYDVTIEAKEIVGSYCPGSYDLSIRDQKFAGISQRRIRGGVAVQIYLCATGSGSERAALVRDFYNLAIQGEETRFTYPEIVPSTMASLSELLDETITVQDLMMRLLKTLQQFAPKLTPSQLTIDEIPLYETNLQRIIDRNNKALGLEK,not soluble
4,MSNTERTFIAIKPDGVHRGLVGKIIARFEERGYKLVALKQMTASKAHLEVHYQDLKDKPFFPSLIEYMSSGPVVAMVWQGLDVVKQGRSMLGATNPLASAPGTIRGDFCIQTGRNICHGSDAVDSANREIAHWFKQEEINDYASPFINSWVYE,not soluble
5,MSNVQTSAEREIVDLSHLAFDCGMLGRLKTVSWTPVIAGDSFELDAVGALRLSPLRRGLAIDSKVDFFTFYIPHRHVYGDQWIQFMRDGVNAQPLPSVTCNRYPDHAGYVGTIVPANNRIPKFLHQSYLNIYNNYFRAPWMPERTEANPSNLNEDDARYGFRCCHLKNIWSAPLPPETKLAEEMGIESNSIDIMGLQAAYAQLHTEQERTYFMQRYRDVISSFGGSTSYDADNRPLLVMHTDFWASGYDVDGTDQSSLGQFSGRVQQTFKHSVPRFFVPEHGVMMTLALIRFPPISPLEHHYLAGKSQLTYTDLAGDPALIGNLPPREISYRDLFRDGRSGIKIKVAESIWYRTHPDYVNFKYHDLHGFPFLDDAPGTSTGDNLQEAILVRHQDYDACFQSQQLLQWNKQARYNVSVYRHMPTVRDSIMTS,soluble
6,MSNVSSETVNLNNTSIVHMNMSNVTKLTASNYIMWSRQVHALLHGYGLTQYLDATKAAPAREITVNDVASVNPEYEAWSRQDQLIFSALIGTLSLTVQPTVSRAATSADVWATLAGTYAKPSRGHIKQLQHQIKQWKKDTRTIDEYVQGFINRFDQLALIGKIIDHEDQVDYILGGLPEDYKPIVDQMEGRDTPPNGCLTNSCDEDGCFIQMALNSV,soluble
7,MSNVYVMALDFGNGFVKGKINDEKFVIPSRIGRKTNENNQLKGFVDNKLDVSEFIINGNNDEVLLFGNDLDKTTNTGKDTASTNDRYDIKSFKDLVECSIGLLAREVPEEVVNVVIATGMPSNEIGTDKQAKFEKLLNKSRLIEIDGIAKTINVKGVKIVAQPMGTLLDLNMENGKVFKAFTEGKYSVLDFGSGTTIIDTYQNMKRVEEESFVINKGTIDFYKRIASHVSKKSEGASITPRMIEKGLEYKQCKLNQKTVIDFKDEFYKEQDSLIEEVMSNFEITVGNINSIDRIIVTGGGANIHFDSLSHYYSDVFEKADDSQFSNVRGYEKLGELLKNKVEQESKRGSHHHHHH,soluble
8,MSNYPLHQACMENEFFKVQELLHSKPSLLLQKDQDGRIPLHWSVSFQAHEITSFLLSKMENVNLDDYPDDSGWTPFHIACSVGNLEVVKSLYDRPLKPDLNKITNQGVTCLHLAVGKKWFEVSQFLIENGASVRIKDKFNQIPLHRAASVGSLKLIELLCGLGKSAVNWQDKQGWTPLFHALAEGHGDAAVLLVEKYGAEYDLVDNKGAKAEDVALNEQVKKFFLNNVVDKLAAALEHHHHHH,soluble
9,MSPAPELQIPTVTRQSDGTKIHEISGHKFKAVGLAQPTFCSFCSKFIYGVGKQGYKCLGCETVVHKRCHALITARCTFGPSSRAPVPAETTNLKTRRSRSASEEPPSNTHHFNKHFFTRPTFCDHCGSMLYGLTKQGVQCTDCHANVHFRCQEKVLRNCGIQCQ,not soluble
10,MSPDSCPLVKNILLLDSEGKRVAVKYYSDDWPTNAAKLSFEKYVFSKTSKTNARTEAEITLLDSNIIVYKFAQDLHFFVTGGENENELILASVLQGFFDAVALLLRSNVEKMEALENLDLIFLCLDEMVDQGVVLETDPNVIAGKVAMQSTEASGSLSEQTLTQALATAREHLARSLLT,soluble
11,MSPIDQVLAAACALDASGKAPSLALIKSRLGNKFPMPILIQGLQQFKSMPKAERERLAALSIPEVEEQKPTEPVPLSVTTLAAQLTELQKGFEQAIALKNTEIMQLTNELIELKQRVNQLELQGKSV,soluble
12,MSPRSPRHDKILQLVRENGFMPIEELARLLDVTPQTIRRDINQLCEANLLRRYHGGAALGNSVENEDYFARKGKFQSEKAHIADMIARSIPDHASLFMSIGTTIEAVAQALTATHKGLRVITNNIHVASIMSTNPDFTAMITSGTVRASDGGITGVATLDFINQFKVDYAIIGVSGIEPDGSLLDFDYREVRVAQAMMNNARHRYLAADHSKFGRNALVRMGHISEFHTVFTDAAPPEPVTKLLEEHNVRLVLSEALEHHHHHH,soluble
13,MSPSSATPARCSIARTLELLGDKWTLLIVRDAFWGHSRFSEFTRSLGVASDVLTARLAMLVDEGILERRAYRQEGSRERLEYVLTEKGKQLHVVIGALGQFGRDHLPRPGSTSPEYSDETTGEAVSLAFVTDDGRRVSASTLHVQQGTPAPAADPQG,not soluble
14,MSQAELPVLRVAYMPLIDCAPLVAASRLGLDHAYGLQLQLHRQASWAGVRDRLLAGEVDAAHTLASLVYAIDLGVGGPQCPMALLMTLNHNGQAITLAPALAQGVAAGQPLPQVLAEAGRRVVFAQTFPTGTHALWLYYWLAACGVDPMRDVDVVSIPPPQMPEALASGLVDGYCSGEPWAAVAEAQGSGQRVIRSGELWPEHPEKVLACRREFAALQPELSERLTACVLEACRWLDAAPANRAQCAQWLADPDYIGVPAAHLAACLDADAATVSVDPSALAFHRGGAVNMPWLSDGEWFLEQFQRWGWHTLQAADLARLHDIHRLDNYRRAAQRAGVTAPDADRRINRLFDTPAALEHHHHHH,not soluble
15,MSQDPFALLKAEVDLLGRLLGEAIRTLSGERFFALVEEVRALAKARRQGDEAAGEALLARVEGLSTEEAEALVRAFTHYFHLVNLAEERHRVRVNRLRAQAETLESPRPEGFLALAKALKERGLSLEEAEAHLNRLELLLTFTAHPTETRRRTLRHHLEALQRELEAGDRERLAARVALLYGTEEVRKARPTVEDEIKGGLYYLPTTLWEAVPRVVAGLEAALERVYGRRPRLKSPVRFRSWIGGDRDGNPFVTPEVTAFAGRYAREVARRRFLEALEDLVRDLSLAEARVPVPREVRERGEGVERFMGEPYRRYFAALYRALEREEATTEGLLAALKAAERGLREVGLGRVAEAFLDPLEARLSAFGLELAPLDLREESGRLLEAAAELLRVGGVHPDFLALPQEERERLLTEELKTARPLLPVGEAPEGEALRVALGALKAWRDKGAHVVSMTHHPEDLLAVFLLAREVGLYRPGRPLPFDVVPLFETLEDLRRAPGVLRRLLENPVFLAHARGRGGVEVMIGYSDSNKDAGFLMANLALYEAQEALSRVGEEVGLPVYFFHGRGTSTARGGGPAGRAIASLPPRSVGRRIRLTEQGEALADRYSHPDLAVRHLEQMLYHFALAALGPGQEPEARWREALAQAAEESTRRYRALLQEEGFFDFFEAFTPIREIGELPIASRPVYRRGRVRDIRDLRAIPWVMAWTQVRVLLPGWYGLSALEELPLDLLREMYRGWPFFASTLEAAAMALAKADMGVARLYLRLVPEPLRFFYRRLAEEHARTVALLEAVFQAPLLHNQRTLERQIRLRNPYVDPINIVQVELLRRYRAPGGKEDEALRRALLLSILGVAAGLRNAG,soluble
16,MSQEALKAPVVVLGAGLASVSFVAELRQAGYQGLITVVGDEAERPYDRPPLSKDFMAHGDAEKIRLDCKRAPEVEWLLGVTAQSFDPQAHTVALSDGRTLPYGTLVLATGAAPRALPTLQGATMPVHTLRTLEDARRIQAGLRPQSRLLIVGGGVIGLELAATARTAGVHVSLVETQPRLMSRAAPATLADFVARYHAAQGVDLRFERSVTGSVDGVVLLDDGTRIAADMVVVGIGVLANDALARAAGLACDDGIFVDAYGRTTCPDVYALGDVTRQRNPLSGRFERIETWSNAQNQGIAVARHLVDPTAPGYAELPWYWSDQGALRIQVAGLASGDEEIVRGEVSLDAPKFTLIELQKGRIVGATCVNNARDFAPLRRLLAVGAKPDRAALADPATDLRKLAAAVAA,soluble
17,MSQFDLTPPSPAQRDALIAGLSDEEQRVLLHHGTEAPFCGVFLDNKLDGVYTCRLCGLPLFRSNAKFDSGTGWPSFFAPYDPAHVREIRDTSYGMVRTEIVCARCDSHLGHVFPDGPPPTGERHSLNSVSLAFTEDGQPLPNPLQRAGAETQPA,soluble
18,MSQGHRDAGAAACRTIIVTNHCPPIMRKRDIWRVDQFHLLRKVGSGYASTVYLGTCRTSGNQVAVKLYHKQKLSELNHFQVAREITIHSSLDHKNIIQLWAAFEDQYGIYLVFEYASKGDVFTEVERRGGQLDEAETVRAVVYPFLSALDYLHSRCIIHRDIKPENLLFTATGVLKVADFGLSINFSQERPVTRVGTLDYMAPEVVVCPDKHRPQDHKELKHLHYTPLVDAWAVGVLAYELIVGRPPFDKGQKKATIAEILNSEPFIPPWLSEGATHFIRWSLTKEVGKRPSVQQLAEHPWIVSHMKQSVLAPARRQLVKTDSFVEPRQLGFRGSNAPGAGEPSGPSKEPPRPLQVSSVAQGGRFLGHSSSMSAMDGMRYRDIHLDSVTGGMASAATEALKSVKRVSDGDGTTGGRPSAAGGRVSRAGTARNSGTGQAPLSRMNSMSAQAVVAAAAAAMASGSFGGAAHGSEDSPKGGRALTREELYASLTAPLGGRGSPVLARSFTAGRASPAPQQMAPLPTNAGRKSGGGGLGSGRSSLSGQATGAPPSRGAAELAHDLSRLRVDSAASGGGGAAGPSTSASGAVPYSPGKGSSGIRPSPPQAPSPTARGLRTGSPLIPSRLSQSFTSPVSPLAAGSNASAGTPHLSRLGKTSNSGIVPAVATANTPGSARPPAGMDAHSSAASSAAAAGAQSSPHQPAAAAAGSSLTVSTTPASPGGSSGYGQTRASPRELPGERDPELEDSEVEDEPETERSPSKSKSLFKKIFS,not soluble
19,MSQIMYNYPAMLGHAGDMAGYAGTLQSLGAEIAVEQAALQSAWQGDTGITYQAWQAQWNQAMEDLVRAYHAMSSTHEANTMAMMARDTAEAAKWGG,not soluble
20,MSQKRSLVFAIRDFPPGCGTHIDVSSSLNHPAEKAFKHPRTGDVSGENLSFAEAKPEGTCLKRESADQDHIFAAPEHNAKREPAGQDHVVAATTVAYATSSHRQKVEIGNSDCDPTPREKVLEVLSLFKQVYNQLDRDKKARRGGDFLDATSRIDLKTLTVLEKMGKQVNTEKRIGSVPGINIGDVFQYKTELRVVGLHSKPMCGIDYIKLGDDRITTSIVASEGYGYNDTYNSGVMVYTGEGGNVINKQKKTEDQKLVKGNLALATSMRQKSQVRVIRGEERLDRKGKRYVYDGLYMVEEYWVERDVRGKSVYKFKLCRIPGQLPLT,not soluble
